Experiment in all cases: cryo-EM structure; CMG (125 nM) with fork DNA, AMP-PNP, TIM-1/TIPN-1 and DNSN-1 isoform c (each 1.3-fold molar excess), GraFix gradient with glutaraldehyde and BS3
Common to all, as to settings: both partners purified

The target in experiment [1] is T1, MCM-4 (C. elegans, UniProt Q95XQ8 1-823).
T1 construct: MCM-4, C. elegans; Subunit of m11, written alone for its interfaces in the structure; source: S. cerevisiae, purified as part of recombinant CMG
T1 sequence: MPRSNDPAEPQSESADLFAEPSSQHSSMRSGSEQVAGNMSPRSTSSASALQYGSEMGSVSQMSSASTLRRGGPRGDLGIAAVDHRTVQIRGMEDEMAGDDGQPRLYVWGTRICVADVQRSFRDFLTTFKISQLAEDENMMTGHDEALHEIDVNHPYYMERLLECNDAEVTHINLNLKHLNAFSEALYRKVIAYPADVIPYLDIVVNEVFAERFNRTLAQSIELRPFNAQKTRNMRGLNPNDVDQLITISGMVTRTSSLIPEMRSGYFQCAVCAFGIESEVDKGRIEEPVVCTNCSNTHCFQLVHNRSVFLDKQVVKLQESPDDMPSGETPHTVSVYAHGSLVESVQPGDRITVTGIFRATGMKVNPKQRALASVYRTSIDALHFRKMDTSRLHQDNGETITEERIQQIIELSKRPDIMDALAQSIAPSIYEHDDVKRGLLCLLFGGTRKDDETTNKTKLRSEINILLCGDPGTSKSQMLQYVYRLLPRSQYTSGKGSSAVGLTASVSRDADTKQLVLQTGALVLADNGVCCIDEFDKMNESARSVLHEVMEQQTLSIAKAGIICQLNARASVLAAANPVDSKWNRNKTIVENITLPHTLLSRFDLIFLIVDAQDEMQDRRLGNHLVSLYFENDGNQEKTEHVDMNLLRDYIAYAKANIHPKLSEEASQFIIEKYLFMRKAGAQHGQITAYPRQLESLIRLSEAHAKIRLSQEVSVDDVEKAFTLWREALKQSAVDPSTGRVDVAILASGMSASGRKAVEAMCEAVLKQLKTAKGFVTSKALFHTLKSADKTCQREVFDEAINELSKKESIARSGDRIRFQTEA

Experiment [2] addresses T2, MCM-3 (C. elegans, UniProt Q9XVR7 1-812).
T2 construct: MCM-3, C. elegans; Subunit of m11, written alone for its contacts in the structure; also called MCM-3 subunit of MCM-2-7; source: S. cerevisiae, purified as part of recombinant CMG
T2 sequence: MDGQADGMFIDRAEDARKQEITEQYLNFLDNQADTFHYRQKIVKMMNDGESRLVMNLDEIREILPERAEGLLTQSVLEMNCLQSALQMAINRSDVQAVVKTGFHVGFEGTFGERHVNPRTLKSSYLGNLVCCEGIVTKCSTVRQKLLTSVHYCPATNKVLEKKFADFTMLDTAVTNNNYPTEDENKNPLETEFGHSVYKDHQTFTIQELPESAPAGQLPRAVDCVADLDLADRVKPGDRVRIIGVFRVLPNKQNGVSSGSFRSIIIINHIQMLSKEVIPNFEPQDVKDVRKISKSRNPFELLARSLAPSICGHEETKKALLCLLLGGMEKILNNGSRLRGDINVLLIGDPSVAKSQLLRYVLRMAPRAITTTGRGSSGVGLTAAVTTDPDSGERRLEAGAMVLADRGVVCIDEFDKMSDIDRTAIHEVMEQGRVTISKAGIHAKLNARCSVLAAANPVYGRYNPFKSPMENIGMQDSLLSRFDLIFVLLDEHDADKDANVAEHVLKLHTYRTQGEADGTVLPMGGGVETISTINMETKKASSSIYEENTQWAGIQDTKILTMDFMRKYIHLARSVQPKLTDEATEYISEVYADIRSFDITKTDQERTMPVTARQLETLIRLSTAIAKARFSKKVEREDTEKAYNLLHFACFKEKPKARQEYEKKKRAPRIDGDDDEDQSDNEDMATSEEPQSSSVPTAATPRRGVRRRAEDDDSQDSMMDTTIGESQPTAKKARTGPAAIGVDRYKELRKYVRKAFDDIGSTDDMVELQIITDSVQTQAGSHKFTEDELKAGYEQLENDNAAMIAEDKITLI

Experiment [3] has as its target T3, TIM-1 (C. elegans, UniProt G5EDN3 1-1353).
T3 construct: TIM-1, C. elegans; Chain of m13, written alone for its contacts in the structure; source: S. cerevisiae, purified as part of the TIM-1_TIPN-1 complex
T3 sequence: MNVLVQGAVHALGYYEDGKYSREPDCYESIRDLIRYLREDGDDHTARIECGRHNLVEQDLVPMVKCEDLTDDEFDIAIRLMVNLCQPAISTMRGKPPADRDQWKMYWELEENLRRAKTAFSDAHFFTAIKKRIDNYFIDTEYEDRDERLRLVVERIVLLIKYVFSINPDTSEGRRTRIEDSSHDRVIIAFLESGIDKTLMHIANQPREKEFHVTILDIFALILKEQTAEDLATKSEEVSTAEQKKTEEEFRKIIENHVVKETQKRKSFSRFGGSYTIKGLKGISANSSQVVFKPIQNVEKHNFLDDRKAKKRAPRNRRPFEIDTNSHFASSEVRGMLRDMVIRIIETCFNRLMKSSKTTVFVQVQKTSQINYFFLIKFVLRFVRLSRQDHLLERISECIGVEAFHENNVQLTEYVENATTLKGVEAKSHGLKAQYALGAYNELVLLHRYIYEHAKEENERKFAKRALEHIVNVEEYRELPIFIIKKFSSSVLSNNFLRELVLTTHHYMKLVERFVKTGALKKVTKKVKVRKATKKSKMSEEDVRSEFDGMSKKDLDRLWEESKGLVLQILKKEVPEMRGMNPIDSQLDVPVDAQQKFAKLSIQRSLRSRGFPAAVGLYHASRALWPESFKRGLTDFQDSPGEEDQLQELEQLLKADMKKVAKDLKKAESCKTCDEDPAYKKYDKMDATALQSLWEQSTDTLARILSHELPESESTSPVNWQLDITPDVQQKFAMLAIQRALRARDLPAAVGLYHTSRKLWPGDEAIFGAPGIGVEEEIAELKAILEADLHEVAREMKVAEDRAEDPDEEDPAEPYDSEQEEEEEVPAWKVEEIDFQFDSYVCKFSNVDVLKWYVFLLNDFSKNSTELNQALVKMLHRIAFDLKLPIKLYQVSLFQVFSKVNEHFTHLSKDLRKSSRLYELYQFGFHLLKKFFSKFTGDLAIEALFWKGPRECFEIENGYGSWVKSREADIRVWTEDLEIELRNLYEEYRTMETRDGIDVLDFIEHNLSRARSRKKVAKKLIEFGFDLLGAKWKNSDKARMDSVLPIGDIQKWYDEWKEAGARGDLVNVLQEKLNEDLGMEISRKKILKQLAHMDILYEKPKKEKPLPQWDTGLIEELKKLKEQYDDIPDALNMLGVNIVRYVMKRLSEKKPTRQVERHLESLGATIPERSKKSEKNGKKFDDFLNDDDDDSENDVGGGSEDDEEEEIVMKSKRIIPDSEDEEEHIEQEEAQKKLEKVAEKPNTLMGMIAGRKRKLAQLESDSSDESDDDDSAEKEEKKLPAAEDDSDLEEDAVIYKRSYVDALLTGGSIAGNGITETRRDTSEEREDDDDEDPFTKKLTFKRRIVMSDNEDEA

B1: MCM-6 (natural protein, C. elegans)
chain: MDNIIGGQAQQVEDTDGTRVQNEFSKFLKSFKDQKNEFIYKSAMKELVQPEKNTIFINMQHLYKFSNNLATTIELQYYRVYPFMCEALHLATLDACDESERQQMFKKQLYVSLFNLDAKTKVRELSADKVGGLVRIAGQIVRTHPVHPELSRACFVCEDCGVTTRDVQQQFRYTQPTKCANPQCMNRTRFSLDVNSSTFVDFQKIRIQETQAELPRGSIPRTVDVIVRGEMVETVQPGDKCDIVGTLIVIPDIAQLSTPGLRAETSNQNRGRATDKSEGITGLKALGVRDLTYKMAFLACHIQQTESLVGGDASGAVEETDYLDLWSKMSTEDRATLKKMSDDKKIEKNIVDSLFPNIYGNHEVKLGVLLMLLGGVAKKSRDEGTSLRGDINVCLVGDPSTAKSQVLKAVEEFSPRAIYTSGKASSAAGLTAAVVKDEESFEFVIEAGALMLADNGVCCIDEFDKMDLKDQVAIHEAMEQQTISITKAGVKATLNARASILAAANPVNGRYDRSRPLKYNVQMSAPIMSRFDLFFVLVDECNEVTDYAIARRILDNHRAISEHTERDSVYKIDDIKKYIAFARCFKPKISDKAAETLVREYKKLRMSDSNNAATSSWRITVRQLESLVRLSEALARLHCGKEVLVEHVEKAAELLNKSIVRVEQPDIALDDDDFDNNIMVVEADKENQRGDDSMDHDGEKENAPKIDIAKLKISFKEYKQLSDVLVLHMRSDEDNQGEDEYDGVKQSALVEWYLSTIEADLETEEDFNVQKTICERVIHRLIHQDHVLLEVEQGEDPTLCVHPNYVIADE
notes: MCM-6, C. elegans; Subunit of m11, written alone for its interface in the structure; source: S. cerevisiae, purified as part of recombinant CMG
On to B1, for which the binding result in experiment [1] is recorded as “binds”.

B2: MCM-5 (natural protein, C. elegans)
chain: MSNLDNPGIYYQERFFANDGVPDTGRELIAEYRQLITQFRNFIRDFSTGGFGMIYRDQLKRNYFSHEYRLEINLNHLKNFDEDIEMKLRKFPGKVLPALEEAAKIVADEITTPRPKGEEKLHDIQVTLTLDEYPTSLRQVKSAQVSQVVKISGIIVAAAQVRSKATKVTLQCRQCKHTIPDVSIKPGLEGFALPRTCAAPQQGQMQRCPIDPYIMLPDKCECVDYQTLKLQENPEDVPHGEMPRHLQLFTERYLTDKVVPGNRVTIVGVYSIKKLIQKKGGDKSLQGIRTPYLRVLGIHMETSGPGRTNFTTFTPEEERMFKTLAQRKDAYELIAKSIAPSIYGSADIKKSIACLLFGGARKKLPDGITRRGDINVLLLGDPGTAKSQLLKFVEQVSPIGVYTSGKGSSAAGLTASVIRDPQSRSFIMEGGAMVLADGGVVCIDEFDKMREDDRVAIHEAMEQQTISIAKAGITTTLNSRCSVLAAANSVYGRWDESRGDDNIDFMPTILSRFDMIYIVKDTHDVLKDATLAKHVIEVHVNASAAKERDIAGVPKTATTDSDGVMTMFDTDGFLTIEFLKKFVTYARLNCGPRLTPQASEKLVNHYVKMRNPVVNADAFKSGKKAHNSAIPITVRQLEAIVRIAESIAKMELQQFATDKHVEEALRLFRVSTIEAAATGNLAGVEGFTSTADQEALNRIEVQMKKRFAIGTHVSEHLIVQDFVARQHYRESLVKKVIDNLVRRGDLQQKMQRKMLYRVR
notes: MCM-5, C. elegans; Subunit of m11, written alone for its interface in the structure; source: S. cerevisiae, purified as part of recombinant CMG
With B2, the binding result in experiment [2] was “binds”.

B3: TIPN-1 (natural protein, C. elegans)
chain: MDEMEDFFENDELDREPSPMGDEAIEDNSGEGGTRRVVEPKLLRTKRLANPRLALNERILTGPKGISALRETLKDFKPNPKDDPYANLEKLMKKYAYWGHLMFPKMKTEDVLNRVETLGTRRQVKVFMIKHRLGETGEDSEHEEQENQKNGIIDDGASDNDDDLFKDLPEKEVTTEKAKNSEKSDQKTAEIDENVEEEYRMMEEERLREEQEAKEAADEDALMEDFGDMNNDW
notes: TIPN-1, C. elegans; Chain of m13, written alone; source: S. cerevisiae, purified as part of the TIM-1_TIPN-1 complex
As to B3, the binding result in experiment [3] is listed as “binds”.

B4: MCM-2 (natural protein, C. elegans)
chain: MADRANNDDDVDRQPLPIADDADDDVDGIDEMFNNEDEDPEDEEGENLFGDDMERDYREQPELDQYSESGMDDASDVGSLSVSARRAAEREMAQRDQLLDDDALMYEDGDSEEVDTRRRGRGRRGRGDAADDDSVPMEEEDIPVDILENIRGRTIRDHVSDEAVAKEIERRFKNFLRSFHEPGNKQTKYIQMIKSMAADNRESLEVSFTDLSDDNGEQNISYFLPEAPNEMLAIMDRAATEVVMNMYPFYSRVCNEIKVRISQLPVEEDIRMLRQVHLNMLIRTAGVVTIASGILPQLAVVKYDCVACGYLLGPFVQQNDEEVRPTICPSCQGKGPFELNVENTVYHNYQRITMQESPNKVAAGRLPRSKDVILLGDLCDSCKPGDEIEVTGVYTNNFDGSLNYKQGFPVFNTLIHANHITNKDKMASDQLTDEDIKAIRELSQDPNISQRVFSSIAPSIYGHDDVKRAIALALFRGEAKNPGAKHRLRGDINVLLCGDPGTAKSQFLRYAAHIAPRSVLTTGQGASAVGLTAYVQRHPVTREWTLEAGAMVLADKGVCLIDEFDKMSDQDRTSIHEAMEQQSISISKAGIVTSLHARCTVIAASNPIGGRYNPTRTFAENVDLTEPILSRFDVLCVIRDSVDSVEDERLAKFVVGNHRTHHPDAKKIVKEGDELEEDQMDERTGVRLIPQDLLRKYIIYAREKCHPTLPEQHSEKFSNIFAQMRKESMATGSVAITVRHVESMIRLSEAHAKLHLRSYVNDEDCAAAIRVMLESFVNTQKASIMRMMKKTFSRHLTENRSANELLLFILKQLIRQQMHYATARAAAGTILQSVTIPESEFIEKAQQLRIENVKPFYTSEIFASNNFLYDPSKKTIVQEIF
notes: MCM-2, C. elegans; Subunit of m11, written alone for its contacts in the structure; source: S. cerevisiae, purified as part of recombinant CMG
For B4, the binding result in experiment [3] was “binds”.
